Target: recombinant human IL-6 (human, UniProt P05231 30-212)
Assay: SPR, IL-6 on CM5 chip, Fab lysate, 25 C
Experimental: Three ranges of antigen density (100-150 RU, 300-400 RU, 400-600 RU) were obtained by using variable flow times for each chip channel, later blocked with ethanolamine. Supernatants of the 96-well filtered culture lysates were injected at 50 μL/min for 120 seconds. Fitting of dissociation curves (300 seconds) to single exponential decay curve was used for the determination of dissociation rates (koff). Chip surfaces were regenerated with 10 mM Glycine pH 1.7 solution injected at 50 μL/min during 60 seconds after every cycle of sample binding and dissociation.

recombinant human IL-6, sequence (P05231 30-212 limits assumed): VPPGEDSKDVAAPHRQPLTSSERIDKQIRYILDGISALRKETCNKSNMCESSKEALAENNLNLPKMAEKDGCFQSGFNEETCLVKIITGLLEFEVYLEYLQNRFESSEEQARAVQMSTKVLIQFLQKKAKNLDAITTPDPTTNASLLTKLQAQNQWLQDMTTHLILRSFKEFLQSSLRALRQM

| Binder | koff [s⁻¹] |
| --- | --- |
| anti-IL-6 Fab, light chain L53W (Fab, V domains shown, see m39) VH: EVQLVESGGGLVQPGGSLRLSCAASGFTFSPFAMSWVRQAPGKGLEWVAKISPGGSWTYYSDTVTGRFTFSLDTSKSTAYLQMNSLRAEDTAVYYCARQLWGYYALDIWGQGTLVTVSS VL: DIQLTQSPSSLSASVGDRVTITCSASISVSYMYWYQQKPGKAPKLLIYDMSNWASGVPSRFSGSGSGTDFTLTISSLQPEDFATYYCMQWSGYPYTFGQGTKVEIK | 0.00501 |
| anti-IL-6 Fab, light chain M50E (Fab, V domains shown, see m39) VH: EVQLVESGGGLVQPGGSLRLSCAASGFTFSPFAMSWVRQAPGKGLEWVAKISPGGSWTYYSDTVTGRFTFSLDTSKSTAYLQMNSLRAEDTAVYYCARQLWGYYALDIWGQGTLVTVSS VL: DIQLTQSPSSLSASVGDRVTITCSASISVSYMYWYQQKPGKAPKLLIYDESNLASGVPSRFSGSGSGTDFTLTISSLQPEDFATYYCMQWSGYPYTFGQGTKVEIK | 0.00476 |
| anti-IL-6 Fab, light chain M32L (Fab, V domains shown, see m39) VH: EVQLVESGGGLVQPGGSLRLSCAASGFTFSPFAMSWVRQAPGKGLEWVAKISPGGSWTYYSDTVTGRFTFSLDTSKSTAYLQMNSLRAEDTAVYYCARQLWGYYALDIWGQGTLVTVSS VL: DIQLTQSPSSLSASVGDRVTITCSASISVSYLYWYQQKPGKAPKLLIYDMSNLASGVPSRFSGSGSGTDFTLTISSLQPEDFATYYCMQWSGYPYTFGQGTKVEIK | 0.00492 |
| anti-IL-6 Fab, light chain N52S (Fab, V domains shown, see m39) VH: EVQLVESGGGLVQPGGSLRLSCAASGFTFSPFAMSWVRQAPGKGLEWVAKISPGGSWTYYSDTVTGRFTFSLDTSKSTAYLQMNSLRAEDTAVYYCARQLWGYYALDIWGQGTLVTVSS VL: DIQLTQSPSSLSASVGDRVTITCSASISVSYMYWYQQKPGKAPKLLIYDMSSLASGVPSRFSGSGSGTDFTLTISSLQPEDFATYYCMQWSGYPYTFGQGTKVEIK | 0.00555 |
| anti-IL-6 Fab, light chain S24I (Fab, V domains shown, see m39) VH: EVQLVESGGGLVQPGGSLRLSCAASGFTFSPFAMSWVRQAPGKGLEWVAKISPGGSWTYYSDTVTGRFTFSLDTSKSTAYLQMNSLRAEDTAVYYCARQLWGYYALDIWGQGTLVTVSS VL: DIQLTQSPSSLSASVGDRVTITCIASISVSYMYWYQQKPGKAPKLLIYDMSNLASGVPSRFSGSGSGTDFTLTISSLQPEDFATYYCMQWSGYPYTFGQGTKVEIK | 0.00412 |
| anti-IL-6 Fab, light chain M88V (Fab, V domains shown, see m39) VH: EVQLVESGGGLVQPGGSLRLSCAASGFTFSPFAMSWVRQAPGKGLEWVAKISPGGSWTYYSDTVTGRFTFSLDTSKSTAYLQMNSLRAEDTAVYYCARQLWGYYALDIWGQGTLVTVSS VL: DIQLTQSPSSLSASVGDRVTITCSASISVSYMYWYQQKPGKAPKLLIYDMSNLASGVPSRFSGSGSGTDFTLTISSLQPEDFATYYCVQWSGYPYTFGQGTKVEIK | 0.00495 |
| anti-IL-6 Fab, light chain M88A (Fab, V domains shown, see m39) VH: EVQLVESGGGLVQPGGSLRLSCAASGFTFSPFAMSWVRQAPGKGLEWVAKISPGGSWTYYSDTVTGRFTFSLDTSKSTAYLQMNSLRAEDTAVYYCARQLWGYYALDIWGQGTLVTVSS VL: DIQLTQSPSSLSASVGDRVTITCSASISVSYMYWYQQKPGKAPKLLIYDMSNLASGVPSRFSGSGSGTDFTLTISSLQPEDFATYYCAQWSGYPYTFGQGTKVEIK | 0.00479 |
| anti-IL-6 Fab, light chain S24P (Fab, V domains shown, see m39) VH: EVQLVESGGGLVQPGGSLRLSCAASGFTFSPFAMSWVRQAPGKGLEWVAKISPGGSWTYYSDTVTGRFTFSLDTSKSTAYLQMNSLRAEDTAVYYCARQLWGYYALDIWGQGTLVTVSS VL: DIQLTQSPSSLSASVGDRVTITCPASISVSYMYWYQQKPGKAPKLLIYDMSNLASGVPSRFSGSGSGTDFTLTISSLQPEDFATYYCMQWSGYPYTFGQGTKVEIK | 0.00397 |

The next lines start with the values.

| koff [s⁻¹] | Binder |
| --- | --- |
| 0.005 | anti-IL-6 Fab, light chain L53R (Fab, V domains shown, see m39) VH: EVQLVESGGGLVQPGGSLRLSCAASGFTFSPFAMSWVRQAPGKGLEWVAKISPGGSWTYYSDTVTGRFTFSLDTSKSTAYLQMNSLRAEDTAVYYCARQLWGYYALDIWGQGTLVTVSS VL: DIQLTQSPSSLSASVGDRVTITCSASISVSYMYWYQQKPGKAPKLLIYDMSNRASGVPSRFSGSGSGTDFTLTISSLQPEDFATYYCMQWSGYPYTFGQGTKVEIK |
| 0.00416 | anti-IL-6 Fab, light chain S24K (Fab, V domains shown, see m39) VH: EVQLVESGGGLVQPGGSLRLSCAASGFTFSPFAMSWVRQAPGKGLEWVAKISPGGSWTYYSDTVTGRFTFSLDTSKSTAYLQMNSLRAEDTAVYYCARQLWGYYALDIWGQGTLVTVSS VL: DIQLTQSPSSLSASVGDRVTITCKASISVSYMYWYQQKPGKAPKLLIYDMSNLASGVPSRFSGSGSGTDFTLTISSLQPEDFATYYCMQWSGYPYTFGQGTKVEIK |
| 0.00601 | anti-IL-6 Fab, light chain Q89S (Fab, V domains shown, see m39) VH: EVQLVESGGGLVQPGGSLRLSCAASGFTFSPFAMSWVRQAPGKGLEWVAKISPGGSWTYYSDTVTGRFTFSLDTSKSTAYLQMNSLRAEDTAVYYCARQLWGYYALDIWGQGTLVTVSS VL: DIQLTQSPSSLSASVGDRVTITCSASISVSYMYWYQQKPGKAPKLLIYDMSNLASGVPSRFSGSGSGTDFTLTISSLQPEDFATYYCMSWSGYPYTFGQGTKVEIK |
| 0.00458 | anti-IL-6 Fab, light chain M50D (Fab, V domains shown, see m39) VH: EVQLVESGGGLVQPGGSLRLSCAASGFTFSPFAMSWVRQAPGKGLEWVAKISPGGSWTYYSDTVTGRFTFSLDTSKSTAYLQMNSLRAEDTAVYYCARQLWGYYALDIWGQGTLVTVSS VL: DIQLTQSPSSLSASVGDRVTITCSASISVSYMYWYQQKPGKAPKLLIYDDSNLASGVPSRFSGSGSGTDFTLTISSLQPEDFATYYCMQWSGYPYTFGQGTKVEIK |
| 0.00455 | anti-IL-6 Fab, light chain M32V (Fab, V domains shown, see m39) VH: EVQLVESGGGLVQPGGSLRLSCAASGFTFSPFAMSWVRQAPGKGLEWVAKISPGGSWTYYSDTVTGRFTFSLDTSKSTAYLQMNSLRAEDTAVYYCARQLWGYYALDIWGQGTLVTVSS VL: DIQLTQSPSSLSASVGDRVTITCSASISVSYVYWYQQKPGKAPKLLIYDMSNLASGVPSRFSGSGSGTDFTLTISSLQPEDFATYYCMQWSGYPYTFGQGTKVEIK |
| 0.00416 | anti-IL-6 Fab, light chain S24V (Fab, V domains shown, see m39) VH: EVQLVESGGGLVQPGGSLRLSCAASGFTFSPFAMSWVRQAPGKGLEWVAKISPGGSWTYYSDTVTGRFTFSLDTSKSTAYLQMNSLRAEDTAVYYCARQLWGYYALDIWGQGTLVTVSS VL: DIQLTQSPSSLSASVGDRVTITCVASISVSYMYWYQQKPGKAPKLLIYDMSNLASGVPSRFSGSGSGTDFTLTISSLQPEDFATYYCMQWSGYPYTFGQGTKVEIK |
| 0.00585 | anti-IL-6 Fab, light chain Q89A (Fab, V domains shown, see m39) VH: EVQLVESGGGLVQPGGSLRLSCAASGFTFSPFAMSWVRQAPGKGLEWVAKISPGGSWTYYSDTVTGRFTFSLDTSKSTAYLQMNSLRAEDTAVYYCARQLWGYYALDIWGQGTLVTVSS VL: DIQLTQSPSSLSASVGDRVTITCSASISVSYMYWYQQKPGKAPKLLIYDMSNLASGVPSRFSGSGSGTDFTLTISSLQPEDFATYYCMAWSGYPYTFGQGTKVEIK |
| 0.00394 | anti-IL-6 Fab, light chain S26G (Fab, V domains shown, see m39) VH: EVQLVESGGGLVQPGGSLRLSCAASGFTFSPFAMSWVRQAPGKGLEWVAKISPGGSWTYYSDTVTGRFTFSLDTSKSTAYLQMNSLRAEDTAVYYCARQLWGYYALDIWGQGTLVTVSS VL: DIQLTQSPSSLSASVGDRVTITCSAGISVSYMYWYQQKPGKAPKLLIYDMSNLASGVPSRFSGSGSGTDFTLTISSLQPEDFATYYCMQWSGYPYTFGQGTKVEIK |
